Test [1] concerns the target human 4-1BB on the surface of HEK293 cells (HEK293-Hu4-1BB) (human) (UniProt Q07011). The test is described as follows: cell-based or functional assay.
Test [2] has the same target. Kind of test: FACS, HEK293-Hu4-1BB cells. In general terms: In flow cytometry, cells or beads pass a laser one at a time.
For test [3] the target is unchanged. Kind of test: FACS, HEK293-Hu4-1BB cells. This is another data set of the same source.
The target is the same in test [4]. The test is described as follows: cell-based or functional assay. This is another data set of the same source.
For test [5] the target is unchanged. The test is described as follows: FACS, HEK293-Hu4-1BB cells. This is another data set of the same source.
Test [6] addresses human FAP on the surface of CHO-K1 cells (CHO-K1-HuFAP) (human) (UniProt Q12884). The test is described as follows: FACS, CHO-K1-HuFAP cells.
The target is the same in test [7]. Kind of test: FACS, CHO-K1-HuFAP cells. The source holds these as a separate data set.
Test [8] addresses human CD40 on the surface of HEK293 cells (HEK293-HuCD40) (human) (UniProt P25942). The test is described as follows: cell-based or functional assay.
For test [9] the target is unchanged. The test is described as follows: cell-based or functional assay. The source holds these as a separate data set.
Test [10] addresses human 4-1BB on the surface of HEK293 cells (HEK293-Hu4-1BB) (human) (UniProt Q07011). Kind of test: FACS, HEK293-Hu4-1BB cells. This is another data set of the same source.
The target in test [11] is human CD40 on the surface of HEK293 cells (HEK293-HuCD40) (human) (UniProt P25942). The test is described as follows: FACS, HEK293-HuCD40 cells.
The target is the same in test [12]. The test is described as follows: FACS, HEK293-HuCD40 cells. The source holds these as a separate data set.
The target of test [13] is human FAP on the surface of CHO-K1 cells (CHO-K1-HuFAP) (human) (UniProt Q12884). Kind of test: FACS, CHO-K1-HuFAP cells. This is another data set of the same source.

Read-outs that look alike come from different tables or passages of the source.

In [1], “RO7300490 (2302(2+1)PG), FAP/CD40 bispecific antibody molecule, control” yielded a 4-1BB/NF-κB luciferase reporter, CD40-crosslinked, Fold change in Emax of 1.06 fold; a 4-1BB/NF-κB luciferase reporter, FAP-crosslinked, Fold change in Emax of 1.02 fold; a 4-1BB/NF-κB luciferase reporter, uncrosslinked, Fold change in Emax of 1.01 fold. Besides, the Maximum fluorescence value in [2] came to 1790.
On to IgG1 isotype control (antibody), for which the Maximum fluorescence value in test [3] stood at 69; in [5], 63; in test [6] it was 63; in test [7] it was 64; in test [10] it was 67; in test [11], 61. Further, the values for the Maximum fluorescence value in test [12], in [2] and in [13] were 62, 65 and 62, respectively. Moreover, the 4-1BB/NF-κB luciferase reporter, CD40-crosslinked, Fold change in Emax came out at 1.06 fold in [4] and 1.05 fold in [1]. The 4-1BB/NF-κB luciferase reporter, FAP-crosslinked, Fold change in Emax in [4] stood at 1.04 fold; in test [1], 1.08 fold. For the same substance, the values for the 4-1BB/NF-κB luciferase reporter, uncrosslinked, Fold change in Emax in [4] and in test [1] were 1.05 fold and 1.1 fold, respectively. Further, the CD40/NF-κB reporter (HEK-Blue CD40L), uncrosslinked, Fold change in Emax in test [8] amounted to 0.99 fold; in test [9], 1 fold. In addition, in test [9], the CD40/NF-κB reporter (HEK-Blue CD40L), 4-1BB-crosslinked, Fold change in Emax worked out at 0.99 fold. Also, the CD40/NF-κB reporter (HEK-Blue CD40L), FAP-crosslinked, Fold change in Emax in test [9] turned out to be 0.99 fold.
